Data taken from patent US10131702B2, “Glucagon-GLP-1-GIP triple agonist compounds” (priority 2013, dated 2018).
Where two headings read alike, the source gives them in different places.

B1: Compound 6 (peptide)
peptide: YAQGTFTSDYSKYLDSKAARDFVEWLLSA
HELM: PEPTIDE1{Y.[Aib].Q.G.T.F.T.S.D.Y.S.K.Y.L.D.S.K.A.A.R.D.F.V.E.W.L.L.S.A.[am]}$$$$V2.0
SMILES: CC(C)C[C@H](NC(=O)[C@H](CC(C)C)NC(=O)[C@H](Cc1c[nH]c2ccccc12)NC(=O)[C@H](CCC(=O)O)NC(=O)[C@@H](NC(=O)[C@H](Cc1ccccc1)NC(=O)[C@H](CC(=O)O)NC(=O)[C@H](CCCNC(=N)N)NC(=O)[C@H](C)NC(=O)[C@H](C)NC(=O)[C@H](CCCCN)NC(=O)[C@H](CO)NC(=O)[C@H](CC(=O)O)NC(=O)[C@H](CC(C)C)NC(=O)[C@H](Cc1ccc(O)cc1)NC(=O)[C@H](CCCCN)NC(=O)[C@H](CO)NC(=O)[C@H](Cc1ccc(O)cc1)NC(=O)[C@H](CC(=O)O)NC(=O)[C@H](CO)NC(=O)[C@@H](NC(=O)[C@H](Cc1ccccc1)NC(=O)[C@@H](NC(=O)CNC(=O)[C@H](CCC(N)=O)NC(=O)C(C)(C)NC(=O)[C@@H](N)Cc1ccc(O)cc1)[C@@H](C)O)[C@@H](C)O)C(C)C)C(=O)N[C@@H](CO)C(=O)N[C@@H](C)C(N)=O
B2: Compound 7 (peptide)
peptide: YAQGTFTSDYSKALDSKAAHDFVEWLLSA
HELM: PEPTIDE1{Y.[Aib].Q.G.T.F.T.S.D.Y.S.K.A.L.D.S.K.A.A.H.D.F.V.E.W.L.L.S.A.[am]}$$$$V2.0
SMILES: CC(C)C[C@H](NC(=O)[C@H](C)NC(=O)[C@H](CCCCN)NC(=O)[C@H](CO)NC(=O)[C@H](Cc1ccc(O)cc1)NC(=O)[C@H](CC(=O)O)NC(=O)[C@H](CO)NC(=O)[C@@H](NC(=O)[C@H](Cc1ccccc1)NC(=O)[C@@H](NC(=O)CNC(=O)[C@H](CCC(N)=O)NC(=O)C(C)(C)NC(=O)[C@@H](N)Cc1ccc(O)cc1)[C@@H](C)O)[C@@H](C)O)C(=O)N[C@@H](CC(=O)O)C(=O)N[C@@H](CO)C(=O)N[C@@H](CCCCN)C(=O)N[C@@H](C)C(=O)N[C@@H](C)C(=O)N[C@@H](Cc1c[nH]cn1)C(=O)N[C@@H](CC(=O)O)C(=O)N[C@@H](Cc1ccccc1)C(=O)N[C@H](C(=O)N[C@@H](CCC(=O)O)C(=O)N[C@@H](Cc1c[nH]c2ccccc12)C(=O)N[C@@H](CC(C)C)C(=O)N[C@@H](CC(C)C)C(=O)N[C@@H](CO)C(=O)N[C@@H](C)C(N)=O)C(C)C
B3: Compound 8 (peptide)
peptide: YAQGTFTSDYSKYLESKAAHDFVEWLLSA
HELM: PEPTIDE1{Y.[Aib].Q.G.T.F.T.S.D.Y.S.K.Y.L.E.S.K.A.A.H.D.F.V.E.W.L.L.S.A.[am]}$$$$V2.0
SMILES: CC(C)C[C@H](NC(=O)[C@H](CC(C)C)NC(=O)[C@H](Cc1c[nH]c2ccccc12)NC(=O)[C@H](CCC(=O)O)NC(=O)[C@@H](NC(=O)[C@H](Cc1ccccc1)NC(=O)[C@H](CC(=O)O)NC(=O)[C@H](Cc1c[nH]cn1)NC(=O)[C@H](C)NC(=O)[C@H](C)NC(=O)[C@H](CCCCN)NC(=O)[C@H](CO)NC(=O)[C@H](CCC(=O)O)NC(=O)[C@H](CC(C)C)NC(=O)[C@H](Cc1ccc(O)cc1)NC(=O)[C@H](CCCCN)NC(=O)[C@H](CO)NC(=O)[C@H](Cc1ccc(O)cc1)NC(=O)[C@H](CC(=O)O)NC(=O)[C@H](CO)NC(=O)[C@@H](NC(=O)[C@H](Cc1ccccc1)NC(=O)[C@@H](NC(=O)CNC(=O)[C@H](CCC(N)=O)NC(=O)C(C)(C)NC(=O)[C@@H](N)Cc1ccc(O)cc1)[C@@H](C)O)[C@@H](C)O)C(C)C)C(=O)N[C@@H](CO)C(=O)N[C@@H](C)C(N)=O
B4: Compound 9 (peptide)
peptide: YAQGTFTSDYSIYLDEKAAHDFVEWLLSA
HELM: PEPTIDE1{Y.[Aib].Q.G.T.F.T.S.D.Y.S.I.Y.L.D.E.K.A.A.H.D.F.V.E.W.L.L.S.A.[am]}$$$$V2.0
SMILES: CC[C@H](C)[C@H](NC(=O)[C@H](CO)NC(=O)[C@H](Cc1ccc(O)cc1)NC(=O)[C@H](CC(=O)O)NC(=O)[C@H](CO)NC(=O)[C@@H](NC(=O)[C@H](Cc1ccccc1)NC(=O)[C@@H](NC(=O)CNC(=O)[C@H](CCC(N)=O)NC(=O)C(C)(C)NC(=O)[C@@H](N)Cc1ccc(O)cc1)[C@@H](C)O)[C@@H](C)O)C(=O)N[C@@H](Cc1ccc(O)cc1)C(=O)N[C@@H](CC(C)C)C(=O)N[C@@H](CC(=O)O)C(=O)N[C@@H](CCC(=O)O)C(=O)N[C@@H](CCCCN)C(=O)N[C@@H](C)C(=O)N[C@@H](C)C(=O)N[C@@H](Cc1c[nH]cn1)C(=O)N[C@@H](CC(=O)O)C(=O)N[C@@H](Cc1ccccc1)C(=O)N[C@H](C(=O)N[C@@H](CCC(=O)O)C(=O)N[C@@H](Cc1c[nH]c2ccccc12)C(=O)N[C@@H](CC(C)C)C(=O)N[C@@H](CC(C)C)C(=O)N[C@@H](CO)C(=O)N[C@@H](C)C(N)=O)C(C)C
B5: Compound 10 (peptide)
peptide: YAQGTFTSDYSIYLDSKAAKDFVEWLLSA
HELM: PEPTIDE1{Y.[Aib].Q.G.T.F.T.S.D.Y.S.I.Y.L.D.S.K.A.A.K.D.F.V.E.W.L.L.S.A.[am]}$$$$V2.0
SMILES: CC[C@H](C)[C@H](NC(=O)[C@H](CO)NC(=O)[C@H](Cc1ccc(O)cc1)NC(=O)[C@H](CC(=O)O)NC(=O)[C@H](CO)NC(=O)[C@@H](NC(=O)[C@H](Cc1ccccc1)NC(=O)[C@@H](NC(=O)CNC(=O)[C@H](CCC(N)=O)NC(=O)C(C)(C)NC(=O)[C@@H](N)Cc1ccc(O)cc1)[C@@H](C)O)[C@@H](C)O)C(=O)N[C@@H](Cc1ccc(O)cc1)C(=O)N[C@@H](CC(C)C)C(=O)N[C@@H](CC(=O)O)C(=O)N[C@@H](CO)C(=O)N[C@@H](CCCCN)C(=O)N[C@@H](C)C(=O)N[C@@H](C)C(=O)N[C@@H](CCCCN)C(=O)N[C@@H](CC(=O)O)C(=O)N[C@@H](Cc1ccccc1)C(=O)N[C@H](C(=O)N[C@@H](CCC(=O)O)C(=O)N[C@@H](Cc1c[nH]c2ccccc12)C(=O)N[C@@H](CC(C)C)C(=O)N[C@@H](CC(C)C)C(=O)N[C@@H](CO)C(=O)N[C@@H](C)C(N)=O)C(C)C
B6: Compound 11 (peptide)
peptide: YAQGTFTSDYSIYLDSKAAHDFVNWLLSA
HELM: PEPTIDE1{Y.[Aib].Q.G.T.F.T.S.D.Y.S.I.Y.L.D.S.K.A.A.H.D.F.V.N.W.L.L.S.A.[am]}$$$$V2.0
SMILES: CC[C@H](C)[C@H](NC(=O)[C@H](CO)NC(=O)[C@H](Cc1ccc(O)cc1)NC(=O)[C@H](CC(=O)O)NC(=O)[C@H](CO)NC(=O)[C@@H](NC(=O)[C@H](Cc1ccccc1)NC(=O)[C@@H](NC(=O)CNC(=O)[C@H](CCC(N)=O)NC(=O)C(C)(C)NC(=O)[C@@H](N)Cc1ccc(O)cc1)[C@@H](C)O)[C@@H](C)O)C(=O)N[C@@H](Cc1ccc(O)cc1)C(=O)N[C@@H](CC(C)C)C(=O)N[C@@H](CC(=O)O)C(=O)N[C@@H](CO)C(=O)N[C@@H](CCCCN)C(=O)N[C@@H](C)C(=O)N[C@@H](C)C(=O)N[C@@H](Cc1c[nH]cn1)C(=O)N[C@@H](CC(=O)O)C(=O)N[C@@H](Cc1ccccc1)C(=O)N[C@H](C(=O)N[C@@H](CC(N)=O)C(=O)N[C@@H](Cc1c[nH]c2ccccc12)C(=O)N[C@@H](CC(C)C)C(=O)N[C@@H](CC(C)C)C(=O)N[C@@H](CO)C(=O)N[C@@H](C)C(N)=O)C(C)C

Legend:
Test in all cases: cell-based or functional assay
human glucagon receptor [1] = molecular target: T1, human glucagon receptor (human, UniProt P47871 26-477)
[2] = molecular target: T2, human glucagon-like peptide 1 receptor (human, UniProt P43220 24-463)
human GIP receptor [3] = molecular target: T3, human GIP receptor (human, UniProt P48546 22-466)
T3 sequence: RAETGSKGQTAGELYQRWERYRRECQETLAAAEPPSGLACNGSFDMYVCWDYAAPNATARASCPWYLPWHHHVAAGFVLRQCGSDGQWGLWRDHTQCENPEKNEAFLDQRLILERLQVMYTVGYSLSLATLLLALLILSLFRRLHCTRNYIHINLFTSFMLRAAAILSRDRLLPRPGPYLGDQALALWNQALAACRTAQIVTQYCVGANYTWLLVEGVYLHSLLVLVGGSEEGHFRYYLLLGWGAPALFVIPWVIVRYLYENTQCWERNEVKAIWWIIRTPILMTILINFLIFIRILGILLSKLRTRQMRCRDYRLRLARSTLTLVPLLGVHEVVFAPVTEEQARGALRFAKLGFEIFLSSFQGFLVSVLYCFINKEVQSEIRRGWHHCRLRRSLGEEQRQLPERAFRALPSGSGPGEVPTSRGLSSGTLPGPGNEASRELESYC

human glucagon receptor [4] = molecular target: T1, human glucagon receptor; remark: listed apart in the source
[5] = molecular target: T2, human glucagon-like peptide 1 receptor; remark: listed apart in the source
human GIP receptor [6] = molecular target: T3, human GIP receptor; remark: listed apart in the source

T1 sequence (P47871 26-477): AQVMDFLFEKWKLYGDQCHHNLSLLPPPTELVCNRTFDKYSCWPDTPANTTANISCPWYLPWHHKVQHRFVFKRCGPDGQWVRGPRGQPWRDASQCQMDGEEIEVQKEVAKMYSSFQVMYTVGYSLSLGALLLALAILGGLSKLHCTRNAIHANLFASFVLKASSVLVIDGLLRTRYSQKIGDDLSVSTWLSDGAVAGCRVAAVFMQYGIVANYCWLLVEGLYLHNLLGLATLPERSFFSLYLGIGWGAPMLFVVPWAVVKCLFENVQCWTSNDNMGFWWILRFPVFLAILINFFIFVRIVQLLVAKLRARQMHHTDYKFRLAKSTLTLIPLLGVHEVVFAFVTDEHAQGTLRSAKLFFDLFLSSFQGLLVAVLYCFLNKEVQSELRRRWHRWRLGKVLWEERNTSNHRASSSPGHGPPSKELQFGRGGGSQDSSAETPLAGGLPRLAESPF

Binder	EC50 (cAMP induction) (human glucagon receptor [1]) [nM]	EC50 (cAMP induction) [2] [nM]	EC50 (cAMP induction) (human GIP receptor [3]) [nM]	EC50 (cAMP induction) (human glucagon receptor [4]) [nM]	EC50 (cAMP induction) [5] [nM]	EC50 (cAMP induction) (human GIP receptor [6]) [nM]
B1	0.018	0.0095	0.34	0.018	0.018	0.01
B2	0.086	0.031	0.42	0.086	0.086	0.031
B3	0.042	0.015	0.2	0.042	0.042	0.015
B4	0.097	0.0055	0.056	0.097	0.097	0.006
B5	0.1	0.012	0.24	0.1	0.1	0.012
B6	0.11	0.02	0.28	0.11	0.11	0.02
